Consider six molecules from US20190185531A1 (published 2019).

In experiment [1] the target is T1, human Bfl-1 (c-myc-tagged) (human, UniProt Q16548 1-151).
T1 chain: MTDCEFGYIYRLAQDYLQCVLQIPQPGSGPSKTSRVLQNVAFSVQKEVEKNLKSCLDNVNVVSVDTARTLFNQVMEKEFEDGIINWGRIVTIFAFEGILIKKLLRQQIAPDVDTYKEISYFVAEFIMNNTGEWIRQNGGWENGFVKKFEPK
Briefly: fluorescence anisotropy competition. On the technique in general: Fluorescence polarisation rises when a labelled molecule tumbles more slowly, as on binding a larger partner.

The next experiment concerns the target T2, Bcl-w (c-myc-tagged) (human, UniProt Q92843 1-164).
T2 chain: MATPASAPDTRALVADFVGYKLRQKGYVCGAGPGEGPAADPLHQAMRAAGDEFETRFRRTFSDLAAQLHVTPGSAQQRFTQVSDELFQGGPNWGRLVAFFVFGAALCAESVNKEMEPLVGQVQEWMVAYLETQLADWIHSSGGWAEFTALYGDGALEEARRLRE
The experiment can be described thus: fluorescence anisotropy competition.

For another experiment, the target named is Bcl-xL (c-myc-tagged) (human, UniProt Q07817 1-209). The experiment can be described thus: fluorescence anisotropy competition.
Sequence of Bcl-xL (c-myc-tagged) (Q07817 1-209): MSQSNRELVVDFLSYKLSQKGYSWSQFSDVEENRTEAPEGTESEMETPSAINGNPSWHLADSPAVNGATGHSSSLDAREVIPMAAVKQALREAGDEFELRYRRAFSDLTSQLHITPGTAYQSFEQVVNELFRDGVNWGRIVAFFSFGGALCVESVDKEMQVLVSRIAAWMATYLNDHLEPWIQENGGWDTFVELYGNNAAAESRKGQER
In a further experiment the target is Bcl-2 (c-myc-tagged) (human, UniProt P10415 1-217). The experiment can be described thus: fluorescence anisotropy competition.
Sequence of Bcl-2 (c-myc-tagged) (P10415 1-217): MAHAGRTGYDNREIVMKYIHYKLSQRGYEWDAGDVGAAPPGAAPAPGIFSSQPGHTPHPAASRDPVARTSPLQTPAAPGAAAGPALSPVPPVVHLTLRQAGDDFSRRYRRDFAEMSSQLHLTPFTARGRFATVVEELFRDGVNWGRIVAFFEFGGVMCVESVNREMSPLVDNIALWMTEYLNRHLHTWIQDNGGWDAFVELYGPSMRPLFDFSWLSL
The target of experiment [2] is T1, human Bfl-1 (c-myc-tagged). The experiment can be described thus: fluorescence anisotropy competition.
Experiment [3] addresses T3, human Mcl-1 (c-myc-tagged) (human, UniProt Q07820 172-327).
T3 chain: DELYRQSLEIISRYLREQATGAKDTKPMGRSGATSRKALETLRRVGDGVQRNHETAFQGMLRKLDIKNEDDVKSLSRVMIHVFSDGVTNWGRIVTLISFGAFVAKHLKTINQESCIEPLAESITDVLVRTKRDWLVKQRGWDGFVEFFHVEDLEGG
The experiment can be described thus: fluorescence anisotropy competition.

In experiment [4] the target is T1, human Bfl-1 (c-myc-tagged). Briefly: anisotropy.

As a reminder, the Ki is the dissociation constant of the complex between target and ligand, obtained from inhibition or displacement. Low values mean higher affinity, high ones lower affinity.

B1: PUMA/FS2 chimeric peptide: PUMA with larger residues at positions A2 and E2 (peptide)
peptide: Ac-QWVREIAAQLRRMADDLNAQYER-NH2
B1 showed a Ki in experiment [1] of 2.1 nM.

B2: PUMA/FS2 chimeric peptide: PUMA with smaller residues at positions G2, D3, A4 and E4 (peptide)
peptide: Ac-QWAREIGAGLRRAADDVNAQVER-NH2
For B2, the inhibitory constant (Ki) in experiment [1] worked out at 600 nM.

B3: FS2 (peptide)
peptide: Ac-QWVREIAAGLRRAADDVNAQVER-NH2
With B3, the Ki in the experiment with Bcl-w (c-myc-tagged) was found to be 7.21 µM; in the experiment with Bcl-xL (c-myc-tagged) it was 7340 nM; with Bcl-2 (c-myc-tagged) it was 2450 nM; in experiment [2], 24.8 nM; in experiment [3] it was 2580 nM; in experiment [1] it was 21 nM.

B4: FS3 (peptide)
peptide: Ac-QWIREIAAGLRRFADILNAQVER-NH2
Consider B4, for which the Ki with Bcl-w (c-myc-tagged) is 0.828 µM; with Bcl-xL (c-myc-tagged) it was 105 nM; in the experiment with Bcl-2 (c-myc-tagged), 2360 nM; in experiment [2], 2.1 nM; in experiment [3] it was 711 nM.

B5: Puma BH3 peptide (23 residues) (peptide)
peptide: Ac-QWAREIGAQLRRMADDLNAQYER-NH2
For B5, the Ki came to 0.006 µM with Bcl-w (c-myc-tagged), 5.1 nM in experiment [2], 2.7 nM in experiment [3] and 4.8 nM in experiment [1].

B6: FS1 (peptide)
peptide: Ac-QWVREIAAGLRLAADNVNAQLER-NH2
Regarding B6, the Ki is 8.88 µM with Bcl-w (c-myc-tagged); 2720 nM with Bcl-xL (c-myc-tagged); 6940 nM with Bcl-2 (c-myc-tagged); more than 5000 nM in experiment [3]; 16.4 nM in experiment [4].
